Changes are numbered by the printed parent chain. Like-named read-outs stand apart in the source and are kept apart here.
Assays:
[1] = target: T1, monkey PD-L1 (Cyno-PD-L1) on cells (monkey (cyno)); assay: flow cytometry competition on CHO-cynoPDL1 cells, competitor monkey PD-1-hFc 1.25 ug/mL
T1 construct: whole, on cells; also called CHO-cynoPDL1; 293F-cyno PD-L1 cells
Protocol: (§1) CHO-huPDL1, CHO-mPDL1, and CHO-cynoPDL1 cells were respectively taken, washed with PBS, and resuspended with 1% BSA. Then 1×10⁵ cells per well were added to a 96-well V-bottom plate. […] After washing with PBS, PE anti-human Fc (Biolegend, 410708) was added and incubated on ice for 30 min. After washing with PBS, a flow cytometer was used for detection. IC₅₀ was fitted with experimental data by GraphPad Prism.

[2] = target: T2, mouse PD-L1 protein (ACRO, PD1-M5251) (mouse, UniProt Q9EP73 19-238); assay: Carterra HC30M chip, nanobody captured via anti-DYKDDDDK, PD-L1 as analyte
T2 construct: Bought protein; also called Mouse PDL1-Fc
Excerpt: (§2) Kinetic constants were obtained by fitting with Carteria software.

[3] = target: T3, monkey PD-L1 protein (Kactus Biosystems, PDL-CM210) (monkey); assay: as above
T3 construct: Bought protein; also called Monkey PDL1-Fc
Excerpt: as §2

[4] = target: T4, human PD-L1 protein (ACRO, PD1-H5258) (human, UniProt Q9NZQ7 19-238); assay: as above
T4 construct: Bought protein; also called Human PDL1-Fc
Excerpt: as §2

[5] = target: T5, human PD-L1 on CHO-huPDL1 cells (human, UniProt Q9NZQ7 19-290); assay: flow cytometry competition on CHO-huPDL1 cells, competitor human PD-1-hFc 1.25 ug/mL
T5 construct: whole, on cells; also called CHO-hPDL1
Protocol: as §1

[6] = target: T6, mouse PD-L1 on CHO-mPDL1 cells (mouse, UniProt Q9EP73 19-290); assay: flow cytometry competition on CHO-mPDL1 cells, competitor mouse PD-1-hFc 1.25 ug/mL
T6 construct: whole, on cells
Protocol: as §1

[7] = target: T7, human PD-L1 on GS-C2 cells (cells overexpressing human PD-L1, GenScript, M00613) (human, UniProt Q9NZQ7 19-290); assay: cell-based or functional assay
[8] = target: T7, human PD-L1 on GS-C2 cells (cells …); assay: flow cytometry competition on GS-C2 cells, competitor human PD-1-mFc 1.25 ug/mL
Excerpt: (§3) After washing with PBS, a flow cytometer was used for detection. IC₅₀ was fitted with experimental data by GraphPad Prism.

[9] = target: T7, human PD-L1 on GS-C2 cells (cells …); assay: flow cytometry on GS-C2 cells
Protocol: Then PE-labeled goat anti-Flag fluorescent secondary antibody was added, and incubated on ice for 30 min. After washing with PBS, a flow cytometer was used for detection. EC₅₀ was fitted with the experimental data by GraphPad Prism.

[10] = target: T1, monkey PD-L1 (Cyno-PD-L1) on cells; assay: flow cytometry competition on 293F-cyno PD-L1 cells, competitor monkey PD-1-hFc 1.25 ug/mL
Excerpt: as §3

[11] = target: T4, human PD-L1 protein (ACRO, PD1-H5258); assay: SPR (Carterra LSA), nanobody on NiHC200M chip via His-Tag, PD-L1 as analyte
Protocol: The measurement was conducted using a capture kinetics process. The test antibody was immobilized on the surface of the NiHC200M chip via His-Tag. After several rounds of blank buffer injection and stabilizing the detection baseline, human PD-L1 protein was injected as the analyte. Each round of injection consisted of 2 minutes of baseline, 8 minutes of binding, and 20 minutes of dissociation. After subtracting the reference point and zero concentration signal (Double Reference) from the original measurement data, the binding curve was fitted by Carterra LSA Kinetics software and the kinetic parameters were calculated.

[12] = target: T7, human PD-L1 on GS-C2 cells (cells …); assay: flow cytometry on GS-C2 cells; remark: listed apart in the source
Excerpt: (§4) After washing with PBS, a flow cytometer was used for detection.

[13] = target: T1, monkey PD-L1 (Cyno-PD-L1) on cells; assay: flow cytometry on 293F-cyno PD-L1 cells
Excerpt: as §4

[14] = target: T7, human PD-L1 on GS-C2 cells (cells …); assay: flow cytometry competition on GS-C2 cells, competitor human PD-1-mFc 1.25 ug/mL; remark: listed apart in the source
Excerpt: as §4

[15] = target: T7, human PD-L1 on GS-C2 cells (cells …); assay: cell-based or functional assay; remark: listed apart in the source
[16] = target: T3, monkey PD-L1 protein (Kactus …); assay: Carterra HC30M chip, antibody captured via anti-DYKDDDDK, PD-L1 as analyte
Protocol: (§5) The anti-[…] antibody was bound to the HC30M chip via amino coupling, then […] of humanized PD-L1 single-domain antibody was captured. After the baseline was stabilized, gradient diluted human PD-L1 protein (ACRO, PD1-H5258) and monkey PD-L1 protein (Kactus Biosystems, PDL-CM210) (starting from 100 nM, gradient dilution) were flowed over the chip from low to high concentrations, with a binding time of 8 minutes and a dissociation time of 20 minutes. Kinetic constants were obtained by fitting with Carteria software.

[17] = target: T4, human PD-L1 protein (ACRO, PD1-H5258); assay: as above
Protocol: as §5

T7 sequence (Q9NZQ7 19-290, one chain of several): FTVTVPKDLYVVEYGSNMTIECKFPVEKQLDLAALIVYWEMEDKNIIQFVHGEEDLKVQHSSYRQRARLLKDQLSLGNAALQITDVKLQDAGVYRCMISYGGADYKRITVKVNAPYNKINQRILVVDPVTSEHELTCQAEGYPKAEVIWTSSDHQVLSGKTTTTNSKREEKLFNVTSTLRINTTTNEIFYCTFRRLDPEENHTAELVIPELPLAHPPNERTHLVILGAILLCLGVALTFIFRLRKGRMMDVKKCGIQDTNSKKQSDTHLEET
T4 sequence (Q9NZQ7 19-238): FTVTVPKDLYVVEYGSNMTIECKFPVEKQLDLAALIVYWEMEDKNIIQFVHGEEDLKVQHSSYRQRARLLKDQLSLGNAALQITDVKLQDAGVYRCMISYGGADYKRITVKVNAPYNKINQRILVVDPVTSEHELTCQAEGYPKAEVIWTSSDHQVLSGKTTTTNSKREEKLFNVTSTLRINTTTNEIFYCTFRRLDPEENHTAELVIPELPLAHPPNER
T5 sequence (Q9NZQ7 19-290): as the sequence (Q9NZQ7 19-290, one chain of several) above
T2 sequence (Q9EP73 19-238): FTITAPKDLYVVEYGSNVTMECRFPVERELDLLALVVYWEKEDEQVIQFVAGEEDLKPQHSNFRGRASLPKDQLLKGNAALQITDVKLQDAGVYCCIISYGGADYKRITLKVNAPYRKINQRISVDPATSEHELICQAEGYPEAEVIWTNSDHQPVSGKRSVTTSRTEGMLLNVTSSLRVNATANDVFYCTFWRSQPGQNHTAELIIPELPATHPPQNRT
T6 sequence (Q9EP73 19-290): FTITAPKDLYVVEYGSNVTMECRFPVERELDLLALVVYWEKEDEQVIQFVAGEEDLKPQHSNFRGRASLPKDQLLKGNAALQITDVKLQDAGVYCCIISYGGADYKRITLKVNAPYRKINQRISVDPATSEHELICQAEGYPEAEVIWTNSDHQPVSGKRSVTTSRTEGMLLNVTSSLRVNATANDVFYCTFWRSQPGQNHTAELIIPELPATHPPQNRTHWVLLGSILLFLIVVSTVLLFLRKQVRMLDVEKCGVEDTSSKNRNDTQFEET

B1: 4A7 nanobody (VHH)
VHH: EVQLVESGGGLVQAGDSLRLGCAASGRTFSTNVMGWFRQAPGKEREFVSAISRAGSTYSADSVKGRFTISRDNAENTVYLQMNSLKPEDTAVYYCAAGSSPTAIFGKSGMDYWGKGTLVTVSS
notes: Prokaryotically expressed VHH; also called anti-PD-L1 nanobody 4A7
Q: B1 was tested. Which IC50 [1] did it give?
A: 3.55 nM

Q: What about the Kd [2] of the same binder?
A: 99.1 nM

Q: What about the Kd [3] of the same binder?
A: 221 nM

Q: And the Kd [4]?
A: 147 nM

Q: And the IC50 [5]?
A: 1.35 nM

Q: And the IC50 [6]?
A: 1.83 nM

B2: 260-7-B11 nanobody (VHH)
VHH: EVQLVESGGGLVQAGGSLRLSCAASGGTFLTYGMGWFRQAPGKEREFVAAINWSGSMTNYADSVKGRSTISRDNARNTVYLQMISLKPEDTAVYYCAAKTGAVAYIQKNEYDYWGQGTQVTVSS
notes: Prokaryotically expressed VHH
Q: Which results are given for B2?
A: EC50 (nM), blocking of T cell PD-1/PD-L1 signaling pathway (GS-C2 cells with Jurket-NFAT-PD1 cells, luciferase) [7]: 15.3 nM; IC50 [8]: 0.396 nM; EC50 [9]: 0.739 nM; IC50 [10]: 0.627 nM; Kd [11]: 0.0243 nM

B3: 7B11 (Fc fusion)
chain: EVQLVESGGGLVQAGGSLRLSCAASGGTFLTYGMGWFRQAPGKEREFVAAINWSGSMTNYADSVKGRSTISRDNARNTVYLQMISLKPEDTAVYYCAAKTGAVAYIQKNEYDYWGQGTQVTVSSGGGGSGGGGSDKTHTCPPCPAPEAAGAPSVFLFPPKPKDTLMISRTPEVTCVVVDVSHEDPEVKFNWYVDGVEVHNAKTKPREEQYNSTYRVVSVLTVLHQDWLNGKEYKCAVSNKALPAPIEKTISKAKGQPREPQVYTLPPSRDELTKNQVSLTCLVKGFYPSDIAVEWESNGQPENNYKTTPPVLDSDGSFFLYSKLTVDKSRWQQGNVFSCSVMHEALHNHYTQKSLSLSP
notes: also called 7B11 VHH-Fc antibody (260-7-B11 fused to human IgG1 Fc)
Q: B3 was tested. Which EC50 [12] did it give?
A: 0.642 nM

Q: What about the EC50 [13] of the same binder?
A: 1.58 nM

Q: What about the IC50 [14] of the same binder?
A: 0.221 nM

Q: And the “EC50 (nM), blocking of T cell PD-1/PD-L1 signaling pathway (GS-C2 cells with Jurket-NFAT-PD1 cells, luciferase)” value [15]?
A: 2.11 nM

B4: 7B11_huGS_HM1 (Fc fusion)
chain: B3 chain with A14P, E44G, R45L, S68F, R76K, I84N, K87R, P88A, Q119L
notes: Humanized VHH-Fc antibody
Q: What does the source list for B4?
A: Kd [16]: 0.0252 nM; Kd [17]: 0.0294 nM

B5: 7B11_huGS1 (Fc fusion)
chain: EVQLVESGGGLVQPGGSLRLSCAASGGTFLTYGMGWVRQAPGKGLEWVAAINWSGSMTNYADSVKGRFTISRDNAKNTVYLQMNSLRAEDTAVYYCAAKTGAVAYIQKNEYDYWGQGTLVTVSSGGGGSGGGGSDKTHTCPPCPAPEAAGAPSVFLFPPKPKDTLMISRTPEVTCVVVDVSHEDPEVKFNWYVDGVEVHNAKTKPREEQYNSTYRVVSVLTVLHQDWLNGKEYKCAVSNKALPAPIEKTISKAKGQPREPQVYTLPPSRDELTKNQVSLTCLVKGFYPSDIAVEWESNGQPENNYKTTPPVLDSDGSFFLYSKLTVDKSRWQQGNVFSCSVMHEALHNHYTQKSLSLSP
notes: Humanized VHH-Fc antibody
Q: For B5, which Kd [16] is on record?
A: 0.0588 nM

Q: And the Kd [17]?
A: 0.0815 nM

B6: 7B11_huGS_HM4 (Fc fusion)
chain: B5 chain with V37F, W47F, L119Q
notes: Humanized VHH-Fc antibody
Q: For B6, which Kd [16] is on record?
A: 0.0326 nM

Q: And the Kd [17]?
A: 0.035 nM

Q: What about the EC50 [12] of the same binder?
A: 0.729 nM

Q: And the EC50 [13]?
A: 2 nM

Q: What about the IC50 [14] of the same binder?
A: 0.24 nM

Q: What about the “EC50 (nM), blocking of T cell PD-1/PD-L1 signaling pathway (GS-C2 cells with Jurket-NFAT-PD1 cells, luciferase)” value [15] of the same binder?
A: 1.97 nM

B7: 7B11_huBSM_HM2 (Fc fusion)
chain: B3 chain with S68F, R76K, I84R, K87T, P88S, Q119L
notes: Humanized VHH-Fc antibody
Q: How did the Kd [16] turn out when B7 was run?
A: 0.0307 nM

Q: What about the Kd [17] of the same binder?
A: 0.0362 nM

B8: 7B11_huBSM1 (Fc fusion)
chain: B3 chain with E46V, S68F, R76K, I84R, K87T, P88S
notes: Humanized VHH-Fc antibody
Q: B8 was tested. Which Kd [16] did it give?
A: 0.0294 nM

Q: What about the Kd [17] of the same binder?
A: 0.0372 nM

B9: 7B11_huBSM_HM1 (Fc fusion)
chain: B3 chain with E44G, R45L, E46V, S68F, R76K, I84R, K87T, P88S
notes: Humanized VHH-Fc antibody
Q: With B9 as the binder, how does the Kd [16] read?
A: 0.0347 nM

Q: What about the Kd [17] of the same binder?
A: 0.0382 nM
